In the supplement of paper PMC9170038:

Tested on: K4 kissing-loop RNA reporter
Experiment: apparent KD of K4 kissing-loop reporter; higher = weaker reporter binding
Settings: Eterna round: R107
Protocol: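 RNA-MaP round R107: designed RNA switches with theophylline, tryptophan, arginine or FMN aptamers are transcribed on-chip within common flanks. They are titrated with a labelled K4 kissing-loop RNA reporter in RNA-MaP buffer (100 mM Tris pH 7.5, 80 mM KCl, 4 mM MgCl2), without ligand or with the indicated ligand. Median apparent KD per design.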

[1] = input ligand: theophylline 20 uM
[2] = input ligand: tryptophan 2.4 mM
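Further: bound reporter read as fluorescence of individual clusters on recovered sequencing chips by microscopy, with normalized cluster intensities fitted with a binding model.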

Sequence | apparent KD of K4 kissing-loop reporter (input ligand: FMN 200 uM) | apparent KD of K4 kissing-loop reporter (input ligand: arginine 13.2 mM) | apparent KD of K4 kissing-loop reporter (input ligand: none) | apparent KD of K4 kissing-loop reporter [1] | apparent KD of K4 kissing-loop reporter [2]
UUAGUCAGAUUAUUAUUAGCCUGCGAGUCUAAGGAUAUCCGAAUUCGGAGAAGGUAGUGAUGUUACUUUGGCAGGCACUGACAUU [AK9 Exc FMN A] | 807 nM | 357 nM | 431 nM | 414 nM | 351 nM
AAGUGUGUGGCGGCCGCCACUAGUAUCCAGUGAUGUUGGAGAUAUCACGUAAGUGAUAUCCAACAUAGGACCGGGCCAUAUAGAA [Same State - Tryptophan B (Freestyle 17)] | 145 nM | 78.3 nM | 101 nM | 189 nM | 93.1 nM
GGAUAGGACAGAGGAUAUCCUUGAGGCAAGAAACUUGUCUCUAAAGGAUGAAUCCUAGUGAUGUUAGGAGAAGGCUGUCCUAUCG [FmnBX 14 - #SwitchBubble #StaticStem #Palindromic] | 103 nM | 82.2 nM | 85 nM | 77.2 nM | 87.1 nM
GGUAGCUAGGCAGGAUAUAGCUAGUGGAGUGAUGUUCCACCAUACACGAGUGAUGUUCGUAACCUGCUAGAAGGGCCUAGCUACC | 114 nM | 125 nM | 144 nM | 135 nM | 138 nM
CGCCGAAAGGCGAGCGCUCCCACUCCGGAAGGAGCGCCCGAAAGGGCAGGUAGGUCGCCGGAGUGAUGUUCCGGUGGAGGGCUCG [#2 Exclusion - Arginine A Attempt #30 (Inspired by Omei)] | 177 nM | 167 nM | 817 nM | 212 nM | 296 nM
AAUCGCGAGUCAGAUACCAGUUGGCUCGAGAGUCAGUGAUGUUGAUGUAAAUCUUAGGCGAACCCUUGGCAGCUGUCACCAGUCC [theeternabot_sameState_KL_Theo_B_27] | 404 nM | 326 nM | 354 nM | 346 nM | 325 nM
UUGUUUGGUUGAGAGGUUGGGCGAGAUGAUACCAGUAGAGAAGAGUACCCUUGGCAGCAUAGGAGAGAUAUAGUGAUGUUGUAUA [SSTheophA.R] | 487 nM | 424 nM | 420 nM | 525 nM | 402 nM
CUCACGCUCACAGAUACCAGUGGUGAUCCGGAUUGUAGUGAUGUUAAUUCCGCCAUCAUACACCCUUGGCAGCUGGCGUCACCUU [theeternabot_sameState_KL_Theo_B_31] | 799 nM | 417 nM | 654 nM | 871 nM | 715 nM
AAUUAAUACAGAAGGAGCGUGUAUUUAACUACAAUUAUCUUAGCGAGUGAUGUUCGUUUUACACAGGUAGGUCGCUGUAUAUUUA [JR_ExcArginiB_Sub010] | 201 nM | 279 nM | 235 nM | 262 nM | 157 nM
CUUAUGGAGUGUCGUACCGGACACUGGGAAGGAGCGCAAUUCUUUGCAGGUAGGUCGCCCAGUGAUGUUGGGUGGCGCUGUCGAA [Xebeor] | 191 nM | 173 nM | 181 nM | 266 nM | 169 nM
AUAGGCUAGCGAAACGCUAGCCUAACAGAUACCAGUCGCGAAAGCGACCCUUGGCAGCUGCUGAGUGAUGUUCAGGUGAAUGAAU | 442 nM | 285 nM | 418 nM | 403 nM | 374 nM
CAUUCGAAAUGCAGUGAUGUUGCAACUGAUACCAGUAUCGAAAGAUACCCUUGGCAGCGGAAAACCGCUACGUAUUUUUUGAAUG [Ex Theophylline A K4 25] | 257 nM | 317 nM | 270 nM | 356 nM | 253 nM
UUCCGGGCCGAAGGAUAUUGGAGUGAUGUUUCAAGACGUUCGUCCCAGCCCAUAGUAACUAUCGCCCAAGAAGGUCGUAUUGAAU [theeternabot_exclusion_KL_FMN_B_13] | 227 nM | 177 nM | 243 nM | 189 nM | 157 nM
AAGUGUCAUUAGACACACUGAUGUAUAAACUAGGAUAUGCUGAUAAGCAGAAGGAGUGAUGUUCCUUUCAACAUCAGAAUUAAAU [KL-XFMN-A1] | 270 nM | 145 nM | 155 nM | 153 nM | 126 nM
GGUUCUCUGUUAGGAUAUAGAUUAGAGUGAUGUUCUAACGGCCCGGGCCCGAAAGGGCCCGGGCCGCUAGAAGGAACGGAGUUGG [#2 Same State - FMN A Attempt #1 (HarryS)] | 399 nM | 149 nM | 1100 nM | 538 nM | 444 nM
CCAUUCAUUUACGAUACCAGUCUAAUAUAUUGAAUCAAAACCCUCGCCGAGUGAUGUUCGGACCCUUGGCAGCGUCUGCGAGAGG [ddrdkmullin] | 596 nM | 548 nM | 677 nM | 543 nM | 519 nM

Sequence | apparent KD of K4 kissing-loop reporter (input ligand: FMN 200 uM) | apparent KD of K4 kissing-loop reporter (input ligand: arginine 13.2 mM) | apparent KD of K4 kissing-loop reporter (input ligand: none) | apparent KD of K4 kissing-loop reporter [1] | apparent KD of K4 kissing-loop reporter [2]
UAGCAUUUGCUCGAGUGAUGUUCGAGCGAAGGAGCGCGAGAAAUCGCAGGUAGGUCGCGCUCGAACUAUGAGCGAUCAUUUAUUG [Arg A Ex t2d] | 363 nM | 232 nM | 312 nM | 395 nM | 331 nM
UGACUGGACUGAAGGAGCGCGAAACUCCUAGUGAUGUUAGGAAUACGAGACAAAGUCUCGACGCAGGUAGGUCGCAGUCUAGUCU [ArgBS 16 #SwitchBubble #StaticStem] | 115 nM | 94.5 nM | 113 nM | 110 nM | 100 nM
CAUACGCAUGGAGGAUAUGAGAUUACUCAUGUCAUUUAAUAUUCUCAGUGAUGUUGAGAUUUUGGCUCAGAAGGCCAUGUGUAUG [Ex FMN B 18] | 436 nM | 496 nM | 534 nM | 599 nM | 543 nM
AAGCAGUCACUCGACGCCAUCGAAGAUGGGCGAGGACCGGUACGGCCGCCACUCGGAGUGAUGUUCUGAUGACUGCAAAAUAAAA [MatMod 8 - Jieux - Exclusion - Tryptophan A] | 119 nM | 52.7 nM | 118 nM | 156 nM | 94.3 nM
AAAAUAAAUAGCAGUCACGGAGUGAUGUUCCGAGGACCGGUACGGCCGCCACUCGACCAGACAAAGUCUGGAGGCGGAGACUGCA [#SwitchBubble 20 #K4Early] | 166 nM | 176 nM | 193 nM | 187 nM | 162 nM
CGGGAAUUAGGUAUCGUCGAAAGCAAGAACCGAGGACCGGUACGGCCGCCACUCGCACCAGUGAUGUUGGUACAUUUGGUAUCCG [theeternabot_sameState_KL_Trp_A_31] | 115 nM | 112 nM | 134 nM | 103 nM | 132 nM
AUUCGUUUAUGUGAUACCAGACUUUGCAGUGAUGUUGCAUUUAUUUUUGAAUUUUAGUUUGUCCCUUGGCAGCACUAUUUAUUUA [JR_SSTheophyB_Sub005] | 44.1 nM | 87.8 nM | 50.5 nM | 83.1 nM | 42.3 nM
UGGAUAUAGUGAUGUUAUAUAGAGAUGGAUACCAGCGAAGAGAAUUGCCCUUGGCAGCCGAAAGAAGUAUCAUUAGAGAAGAAUG [ExTheophyl.Ah] | 254 nM | 213 nM | 252 nM | 261 nM | 186 nM
AAUAAUAAUAAAUAUAGAUUGAUGAGCAAACGAGGACCGGUACGGCCGCCACUCGAGUGAUGUUCGAGAAGCUCAUCAAUCAUAA [AK4.6 Exc Tryptophan A] | 180 nM | 131 nM | 141 nM | 141 nM | 372 nM
CCAUCGCUAUUCGAUACCAGCUACUUAGUGAUGUUAAGUUUUUACCCACUGUAGGUGGGAAGCCCUUGGCAGCGAAUAGUGAUGG [Theophylline B K4 27] | 240 nM | 203 nM | 239 nM | 151 nM | 209 nM
UGAUAGGACAGAAGGAGCGGAAUCCUGUCAAAGACAGGAAAAUAAAUAAAAGGAGUGAUGUUCCAGGUAGGUCGCUGUCCUAUCU [ArgBX 19 #SwitchBubble #StaticStem] | 271 nM | 210 nM | 248 nM | 243 nM | 215 nM
UUUCCAGUGAUGUUGGAGAAAACCGAGGAAGGAGCGGACUCUUGUCCAGGUAGGUCGCCUCGUCUCCCAUUGGCAGAGCGGACCC [Enlaonbian] | 232 nM | 239 nM | 249 nM | 574 nM | 211 nM
AUGCUUAUAAUAACACUAUAUACAACUGAAGGAGCGACAAUAAAGUCAGGUAGGUCGCAGAAUAAAUGAGUGAUGUUCAUUUUUA [JR_ExcArginiA_Sub010] | 113 nM | 138 nM | 113 nM | 144 nM | 84.2 nM
ACGAAAUGCGACUCCUAGUUACACCGGGAAGGAGCGCGGAUAACCGCAGGUAGGUCGCCCGGAAGCCGGACCAGUGAUGUUGGUC [Exclusion Arginine A Gf 27] | 240 nM | 273 nM | 182 nM | 165 nM | 217 nM
UGUACCGAGUCAGGAUAUGGCGUCGAAAGACGAAUCCUAGUGAUGUUAGCGAUCUGCGAAAGCAGUCCAGAAGGGACUUGGUACU [FmnBS 26 C50] | 219 nM | 338 nM | 438 nM | 371 nM | 290 nM
ACGACUGGAUGAAUAACAUCUAGUCGAGAUCGAGGACCGGUACGGCCGCCACUCGAGCUAACUGCGAGUGAUGUUCGAUAAUAAA [#OpenEnded 2] | 277 nM | 302 nM | 253 nM | 200 nM | 88.4 nM
